We go through one molecule from paper PMC5096685, “Characterization of CgHIFα-Like, a Novel bHLH-PAS Transcription Factor Family Member, and Its Role under Hypoxia Stress in the Pacific Oyster Crassostrea gigas”.

In one data set the target is T1, CgHIFα bHLH-PAS (Crassostrea gigas, UniProt B6ZGN4 1-356).
T1 sequence: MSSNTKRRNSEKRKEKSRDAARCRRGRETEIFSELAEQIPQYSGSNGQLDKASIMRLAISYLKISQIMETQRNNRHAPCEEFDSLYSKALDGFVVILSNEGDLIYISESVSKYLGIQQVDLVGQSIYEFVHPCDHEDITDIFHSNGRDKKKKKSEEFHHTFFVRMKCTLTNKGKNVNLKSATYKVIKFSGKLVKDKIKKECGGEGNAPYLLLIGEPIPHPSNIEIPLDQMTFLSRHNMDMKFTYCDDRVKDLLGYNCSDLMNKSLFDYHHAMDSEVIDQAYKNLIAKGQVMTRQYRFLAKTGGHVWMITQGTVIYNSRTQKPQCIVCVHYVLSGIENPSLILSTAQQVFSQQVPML
Kind of data set: EMSA; no ARNT added; positive control; unlabeled Ew 200x competes; anti-His supershift; 10 mM Tris pH 7.5, 50 mM KCl, 1 mM DTT, 50 ng poly(dI-dC) in 20 uL, 20 min at room temperature. The conditions noted are these: protein: recombinant; tags: His (pET30a); label: biotin end label (probe).

The target in data set [1] is T2, CgHIFα-like bHLH-PAS (CgHIFαlike-His) (Crassostrea gigas, UniProt A0A167QPK5 1-385).
T2 sequence: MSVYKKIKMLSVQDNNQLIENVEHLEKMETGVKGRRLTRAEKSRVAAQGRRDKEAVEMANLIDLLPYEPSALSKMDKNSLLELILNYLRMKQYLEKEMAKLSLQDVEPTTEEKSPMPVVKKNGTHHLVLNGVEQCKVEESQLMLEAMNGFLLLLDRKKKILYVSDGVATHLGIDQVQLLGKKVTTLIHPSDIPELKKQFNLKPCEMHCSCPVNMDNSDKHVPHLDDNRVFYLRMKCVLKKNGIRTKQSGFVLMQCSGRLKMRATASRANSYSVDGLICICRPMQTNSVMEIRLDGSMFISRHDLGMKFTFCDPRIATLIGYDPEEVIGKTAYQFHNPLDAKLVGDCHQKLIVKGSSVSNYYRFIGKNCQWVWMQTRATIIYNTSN
Kind of data set: EMSA; no ARNT added; 1 ug protein, 20 fmol probe, 50 ng poly(dI-dC); unlabeled Ew 200x competes; anti-His supershift; 10 mM Tris pH 7.5, 50 mM KCl, 1 mM DTT, 50 ng poly(dI-dC) in 20 uL, 20 min at room temperature. The note with it: protein: recombinant; tags: His (pET30a); label: biotin end label (probe). A general note: Mobility shift assays separate free from complexed probe on a gel.

B1: Ew (human EPO HRE probe) (dsDNA)
DNA 1: GCCCTACGTGCTGTCTCA
DNA 2: TGAGACAGCACGTAGGGC
As for B1, the binding result (in the data set with CgHIFα bHLH-PAS; in data set [1]) was “binds” in each case.
